This note sets out measurements from patent US20250297009A1 (BIOTHEUS, published 2025).

As usually defined, the EC50 is the concentration at which the effect is half-maximal. What is called Kd is the free concentration of one partner at which half of the binding sites on the other are occupied at equilibrium, for simple one-to-one binding. The EC50 (read off the curve) is the concentration at which the effect is half-maximal. For orientation: IC50 means the concentration that gives 50% inhibition.

Test [1] has as its target T1, human PD-1 (Uniprot: Q15116) on cells (human, UniProt Q15116 25-288).
T1 construct: whole, on cells; The cell type is named under assay or readout; also called CHO-huPD-1 cells; CHO cells overexpressing human PD-1
Description: flow cytometry blocking assay on CHO cells overexpressing human PD-1; blocked ligand: bio-human PD-L1-Fc, SA-PE detection. (In general: In flow cytometry, cells or beads pass a laser one at a time.)

Test [2] concerns the target T2, cynomolgus monkey PD-1 (Uniprot: BOLAJ3 as printed) on CHO-S cells (cynomolgus monkey).
T2 construct: whole, on cells; also called CHO-cynoPD-1 cells; CHO cells overexpressing cynomolgus monkey PD-1
Description: flow cytometry on CHO-S cells overexpressing cynomolgus monkey PD-1. From the text: (§1) By transfecting human PD-1 (Uniprot: Q15116), cynomolgus monkey PD-1 (Uniprot: BOLAJ3) cDNA pCHO1.0 vector (purchased from Invitrogen) into CHO-S cellsand following with pressure screening, CHO-S cells overexpressing human PD-1 (CHO-huPD-1 cells) and CHO-S cells overexpressing cynomolgus monkey PD-1 (CHO-cynoPD-1 cells) were produced. The overexpressed cells after expansion culture were adjusted to the appropriate cell density and added to a 96-well flow plate, centrifuged and then added with gradiently diluted samples, and incubated at 4° C. for 30 minutes. Washing was performed twice with PBS, fluorescent secondary antibody correspondingly diluted to the appropriate concentration was added, incubated at 4° C. for 30 minutes, and washed twice with PBS. The cells were resuspended in PBS, and detected on a CytoFlex flow cytometer, and the corresponding MFI was calculated. Graphpad software was used for graphical analysis to obtain EC₅₀ values.

In test [3] the target is T3, Cynomolgus monkey PD-1-his protein (cynomolgus monkey PD-1 extracellular domain with his tag) (cynomolgus monkey, UniProt Q15116 25-165 (human entry)).
T3 construct: also called Cyno PD-1-his; not shown: his tag
T3 chain: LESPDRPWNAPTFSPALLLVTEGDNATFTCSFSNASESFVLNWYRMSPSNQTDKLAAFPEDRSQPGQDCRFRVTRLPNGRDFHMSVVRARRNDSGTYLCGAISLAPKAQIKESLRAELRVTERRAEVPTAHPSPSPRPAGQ
Description: BLI (ForteBio), antibody loaded on AHQ sensor, 100 nM PD-1-his in solution, monovalent, 1:1 model. As for the experimental part:
(§2) The binding dissociation constant (KD) values of the antibody obtained in Example 1 binding to human and cynomolgus monkey PD-1 were determined by biofilm optical interference technology (ForteBio). Fortebio affinity determination was carried out according to the existing method (Este, P et al. High throughput solution-based measurement of antibody-antigen affinity and epitope binning. Mabs, 2013.5(2): p. 270-8), and the extracellular amino acid sequences of human and cynomolgus monkey PD-1 were as set forth in SEQ ID NO:20 and 21, respectively.
(§3) The sensor loaded with antibody was exposed to 100 nM PD-1-his antigen until the plateau phase, and then the sensor was transferred to the assay buffer for at least 2 minutes for dissociation rate measurement. The kinetic analysis was performed using a 1:1 binding model.
(In general: In BLI a coated tip is dipped into the sample, and binding shifts an interference pattern.)

For test [4], the target named is T4, Human PD-1-his protein (human PD-1 extracellular domain with his tag) (human, UniProt Q15116 25-170).
T4 construct: also called PD-1-his antigen; not shown: his tag
The test is described as above. As for the experimental part:
as §2, §3

Test [5] concerns the target T1, human PD-1 (Uniprot: Q15116) on cells. The test can be described thus: flow cytometry on CHO cells overexpressing human PD-1, fluorescent secondary antibody.
For test [6], the target named is T2, cynomolgus monkey PD-1 (Uniprot: BOLAJ3 …). Description: flow cytometry on CHO cells overexpressing cynomolgus monkey PD-1 according to legend paragraph 157 and Example 11 (the title on the sheet prints CHO-huPD-1), fluorescent secondary antibody.
The target in test [7] is T1, human PD-1 (Uniprot: Q15116) on cells. The test can be described thus: flow cytometry on activated human primary T cells, fluorescent secondary antibody.
For test [8] the target is unchanged. The test can be described thus: flow cytometry on CHO-S cells overexpressing human PD-1.
Excerpt: as §1

For test [9] the target is unchanged. The test can be described thus: flow cytometry, competition with bio-human PD-L1-Fc (0.5 µg/mL) on CHO-huPD-1 cells.

T1 sequence (Q15116 25-288, one chain of several): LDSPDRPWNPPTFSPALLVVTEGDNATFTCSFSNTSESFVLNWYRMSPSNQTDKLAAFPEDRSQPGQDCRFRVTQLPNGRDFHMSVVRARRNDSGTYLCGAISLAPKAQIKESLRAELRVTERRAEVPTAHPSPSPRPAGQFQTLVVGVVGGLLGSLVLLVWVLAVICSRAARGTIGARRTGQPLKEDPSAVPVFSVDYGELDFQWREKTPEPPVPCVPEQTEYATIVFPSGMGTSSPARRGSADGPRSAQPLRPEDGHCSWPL
T4 sequence (Q15116 25-170): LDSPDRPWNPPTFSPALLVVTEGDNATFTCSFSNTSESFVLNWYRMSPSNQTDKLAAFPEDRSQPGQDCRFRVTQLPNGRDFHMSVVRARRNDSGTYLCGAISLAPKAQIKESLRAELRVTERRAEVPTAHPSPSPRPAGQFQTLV

B1: anti-PD-1 antibody ADI-54872 (antibody, human IgG1, kappa, L234A L235A, V domains shown)
VH: QVQLVQSGAEVKKPGASVKVSCKASGYTFTEYYIYWVRQAPGQGLEWIGGINPSNGGTNFNEKFKPRVTMTVDTSTSTAYMELSSLRSEDTAVYYCTVRDFRFDKGFKYWGQGTLVTVSS
VL: EIVLTQSPATLSLSPGERATLSCRASKSVSTSGLNYVHWYQRKPGQAPRLLIYLGSYLDSGVPARFSGSGSGTDFTLTISSLEPEDFAVYYCQQSWELPLTFGGGTKVEIKR
notes: Full-length IgG (human IgG1 LALA constant region), expressed in HEK293 and purified on Protein A
For B1, the “IC50 (read off the curve)” value in test [1] is ~7 nM. Further, the EC50 in [2] was 4.32 nM; in [8] it was 3.79 nM. Further, the figures for the Kd in test [3] and in test [4] were 0.201 nM and 0.453 nM, respectively. The “EC50 (read off the curve)” value was ~7 nM in [5], ~6 nM in test [6] and ~1 nM in [7]. Besides, the IC50 in test [9] stood at 3.74 nM.
